What was measured:
[1] = test system: HeLa Kyoto; assay: melting temperature (median over replicates), in situ; higher = more thermally stable
[2] = test system: HeLa Kyoto; assay: solubility change mitosis vs G1/S (difference of NP-40 vs SDS log2 ratios) (log2 ratio difference); higher = more soluble in mitosis
[3] = test system: HeLa Kyoto; assay: solubility in G1/S (NP-40 vs SDS abundance) (log2 ratio); higher = more soluble; conditions: cell cycle stage: G1/S
[4] = test system: HeLa Kyoto; assay: thermal stability score vs G1/S (z-score of summed log2 fold changes over temperatures); higher = more thermally stable than in G1/S
[5] = cell cycle stage: early G1 (4.5 h after nocodazole release)
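Wherever melting temperature (median over replicates), in situ is given: HeLa Kyoto cells synchronized by double thymidine or nocodazole block, proteins quantified by TMT10plex mass spectrometry, three independent biological replicates.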
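Wherever solubility change mitosis vs G1/S (difference of NP-40 vs SDS log2 ratios) is given: synchronized HeLa Kyoto cells (double thymidine block for G1/S, nocodazole release for mitosis), protein amounts in NP-40 versus SDS lysates quantified by mass spectrometry, three biological replicates.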
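Wherever solubility in G1/S (NP-40 vs SDS abundance) is given: HeLa Kyoto cells arrested at G1/S by double thymidine block, proteins quantified by TMT10plex mass spectrometry in mild NP-40 versus SDS extracts, three biological replicates.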
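Wherever thermal stability score vs G1/S (z-score of summed log2 fold changes over temperatures) is given: synchronized HeLa Kyoto cells, proteins quantified by TMT10plex mass spectrometry, three biological replicates, mitosis taken 0.5 h after nocodazole release, G1/S directly after double thymidine block.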

Substance | melting temperature ([1]; cell cycle stage: G1/S) | melting temperature ([1]; cell cycle stage: mitosis) | solubility change mitosis (log2) [2] | solubility in G1/S (log2) [3] | thermal stability score [4, 5] | thermal stability score ([4]; cell cycle stage: mitosis)
FOCAD | 52.9 °C | 52.4 °C | -0.121 | -0.471 | -1.09 | -1.91
MSQPGIPASGGAPASLQAQNGAALASGSPYTNGPVQNALLSSQESVSQGYNFQLPGSYPHPIPAKTLNPVSGQSNYGGSQGSGQTLNRPPVASNPVTPSLHSGPAPRMPLPASQNPATTPMPSSSFLPEANLPPPLNWQYNYPSTASQTNHCPRASSQPTVSGNTSLTTNHQYVSSGYPSLQNSFIKSGPSVPPLVNPPLPTTFQPGAPHGPPPAGGPPPVRALTPLTSSYRDVPQPLFNSAVNQEGITSNTNNGSMVVHSSYDEIEGGGLLATPQLTNKNPKMSRSVGYSYPSLPPGYQNTTPPGATGVPPSSLNYPSGPQAFTQTPLGANHLTTSMSGLSLQPEGLRVVNLLQERNMLPSTPLKPPVPNLHEDIQKLNCNPELFRCTLTSIPQTQALLNKAKLPLGLLLHPFKDLVQLPVVTSSTIVRCRSCRTYINPFVSFLDQRRWKCNLCYRVNDVPEEFLYNPLTRVYGEPHRRPEVQNATIEFMAPSEYMLRPPQPPVYLFVFDVSHNAVETGYLNSVCQSLLDNLDLLPGNTRTKIGFITFDSTIHFYGLQESLSQPQMLIVSDIEDVFIPMPENLLVNLNESKELVQDLLKTLPQMFTKTLETQSALGPALQAAFKLMSPTGGRMSVFQTQLPTLGVGALKPREEPNHRSSAKDIHMTPSTDFYKKLALDCSGQQVAVDLFLLSGQYSDLASLGCISRYSAGSVYYYPSYHHQHNPVQVQKLQKELQRYLTRKIGFEAVMRIRCTKGLSIHTFHGNFFVRSTDLLSLPNVNPDAGYAVQMSVEESLTDTQLVSFQSALLYTSSKGERRIRVHTLCLPVVSTLNDVFLGADVQAISGLLANMAVDRSMTASLSDARDALVNAVIDSLSAYRSSVLSNQQPGLMVPFSLRLFPLFVLALLKQKSFQTGTNARLDERIFAMCQVKNQPLVYLMLTTHPSLYRVDNLSDEGALNISDRTIPQPPILQLSVEKLSRDGAFLMDAGSVLMLWVGKNCTQNFLSQVLGVQNYASIPQPMTDLPELDTPESARIIAFISWLREQRPFFPILYVIRDESPMKANFLQNMIEDRTESALSYYEFLLHIQQQVNK [SEC24A] | 49.5 °C | 49.5 °C | -0.0997 | 0.00033 | 0.052 | 0.892
MYPESTTGSPARLSLRQTGSPGMIYSTRYGSPKRQLQFYRNLGKSGLRVSCLGLGTWVTFGGQITDEMAEQLMTLAYDNGINLFDTAEVYAAGKAEVVLGNIIKKKGWRRSSLVITTKIFWGGKAETERGLSRKHIIEGLKASLERLQLEYVDVVFANRPDPNTPMEETVRAMTHVINQGMAMYWGTSRWSSMEIMEAYSVARQFNLTPPICEQAEYHMFQREKVEVQLPELFHKIGVGAMTWSPLACGIVSGKYDSGIPPYSRASLKGYQWLKDKILSEEGRRQQAKLKELQAIAERLGCTLPQLAIAWCLRNEGVSSVLLGASNADQLMENIGAIQVLPKLSSSIIHEIDSILGNKPYSKKDYRS [KCNAB2] | 60.3 °C | 58.8 °C | -0.201 | 0.117 | -0.252 | 3.11
MAGPRGALLAWCRRQCEGYRGVEIRDLSSSFRDGLAFCAILHRHRPDLLDFDSLSKDNVFENNRLAFEVAEKELGIPALLDPNDMVSMSVPDCLSIMTYVSQYYNHFCSPGQAGVSPPRKGLAPCSPPSVAPTPVEPEDVAQGEELSSGSLSEQGTGQTPSSTCAACQQHVHLVQRYLADGRLYHRHCFRCRRCSSTLLPGAYENGPEEGTFVCAEHCARLGPGTRSGTRPGPFSQPKQQHQQQLAEDAKDVPGGGPSSSAPAGAEADGPKASPEARPQIPTKPRVPGKLQELASPPAGRPTPAPRKASESTTPAPPTPRPRSSLQQENLVEQAGSSSLVNGRLHELPVPKPRGTPKPSEGTPAPRKDPPWITLVQAEPKKKPAPLPPSSSPGPPSQDSRQVENGGTEEVAQPSPTASLESKPYNPFEEEEEDKEEEAPAAPSLATSPALGHPESTPKSLHPWYGITPTSSPKTKKRPAPRAPSASPLALHASRLSHSEPPSATPSPALSVESLSSESASQTAGAELLEPPAVPKSSSEPAVHAPGTPGNPVSLSTNSSLASSGELVEPRVEQMPQASPGLAPRTRGSSGPQPAKPCSGATPTPLLLVGDRSPVPSPGSSSPQLQVKSSCKENPFNRKPSPAASPATKKATKGSKPVRPPAPGHGFPLIKRKVQADQYIPEEDIHGEMDTIERRLDALEHRGVLLEEKLRGGLNEGREDDMLVDWFKLIHEKHLLVRRESELIYVFKQQNLEQRQADVEYELRCLLNKPEKDWTEEDRAREKVLMQELVTLIEQRNAIINCLDEDRQREEEEDKMLEAMIKKKEFQREAEPEGKKKGKFKTMKMLKLLGNKRDAKSKSPRDKS [MICALL1] | 49.4 °C | 50.5 °C | -0.0692 | 0.417 | -0.815 | 1.14
MERKISRIHLVSEPSITHFLQVSWEKTLESGFVITLTDGHSAWTGTVSESEISQEADDMAMEKGKYVGELRKALLSGAGPADVYTFNFSKESCYFFFEKNLKDVSFRLGSFNLEKVENPAEVIRELICYCLDTIAENQAKNEHLQKENERLLRDWNDVQGRFEKCVSAKEALETDLYKRFILVLNEKKTKIRSLHNKLLNAAQEREKDIKQEGETAICSEMTADRDPVYDESTDEESENQTDLSGLASAAVSKDDSIISSLDVTDIAPSRKRRQRMQRNLGTEPKMAPQENQLQEKENSRPDSSLPETSKKEHISAENMSLETLRNSSPEDLFDEI [XRCC4] | 55.2 °C | 54.7 °C | -0.0112 | 0.0124 | -0.551 | -0.497
MASVVLPSGSQCAAAAAAAAPPGLRLRLLLLLFSAAALIPTGDGQNLFTKDVTVIEGEVATISCQVNKSDDSVIQLLNPNRQTIYFRDFRPLKDSRFQLLNFSSSELKVSLTNVSISDEGRYFCQLYTDPPQESYTTITVLVPPRNLMIDIQKDTAVEGEEIEVNCTAMASKPATTIRWFKGNTELKGKSEVEEWSDMYTVTSQLMLKVHKEDDGVPVICQVEHPAVTGNLQTQRYLEVQYKPQVHIQMTYPLQGLTREGDALELTCEAIGKPQPVMVTWVRVDDEMPQHAVLSGPNLFINNLNKTDNGTYRCEASNIVGKAHSDYMLYVYDPPTTIPPPTTTTTTTTTTTTTILTIITDSRAGEEGSIRAVDHAVIGGVVAVVVFAMLCLLIILGRYFARHKGTYFTHEAKGADDAADADTAIINAEGGQNNSEEKKEYFI [CADM1] | 61.3 °C | 58.9 °C | -0.0334 | -0.145 | 0.625 | 0.622

From the supplement of paper PMC5998384
